175 variants from IntAct's records for PubMed 29039417 can be followed below.

Sequences and labels used below:
B1: BBSome complex member BBS4 (Homo sapiens), Q96RK4 (parent)
chain: MAEERVATRTQFPVSTESQKPRQKKAPEFPILEKQNWLIHLHYIRKDYEACKAVIKEQLQETQGLCEYAIYVQALIFRLEGNIQESLELFQTCAVLSPQSADNLKQVARSLFLLGKHKAAIEVYNEAAKLNQKDWEISHNLGVCYIYLKQFNKAQDQLHNALNLNRHDLTYIMLGKIHLLEGDLDKAIEVYKKAVEFSPENTELLTTLGLLYLQLGIYQKAFEHLGNALTYDPTNYKAILAAGSMMQTHGDFDVALTKYRVVACAVPESPPLWNNIGMCFFGKKKYVAAISCLKRANYLAPFDWKILYNLGLVHLTMQQYASAFHFLSAAINFQPKMGELYMLLAVALTNLEDIENAKRAYAEAVHLDKCNPLVNLNYAVLLYNQGEKKNALAQYQEMEKKVSLLKDNSSLEFDSEMVEMAQKLGAALQVGEALVWTKPVKDPKSKHQTTSTSKPASFQQPLGSNQALGQAMSSAAAYRTLPSGAGGTSQFTKPPSLPLEPEPAVESSPTETSEQIREK
partner: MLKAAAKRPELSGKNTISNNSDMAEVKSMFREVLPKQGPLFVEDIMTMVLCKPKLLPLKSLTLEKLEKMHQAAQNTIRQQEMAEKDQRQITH

Variants of B1 are the subject of the assay. Particulars: with bbip1_human BBIP1, A8MTZ0.
Take L293K: the “effect of a mutation on the interaction” value was “with no effect”.
For the variant L293E, the “effect of a mutation on the interaction” value was “with no effect”.
To L293A belongs “with no effect”; to I290K, “with no effect”; to I290A, “with no effect”.
With I290E the entry was “with no effect”.
A288K: the “effect of a mutation on the interaction” value is given as “with no effect”.
In the case of A288E, the “effect of a mutation on the interaction” value is recorded as “with no effect”.
To H325E belongs “with no effect”.
As for H325A, the “effect of a mutation on the interaction” value is “with no effect”.
With H325K the entry was “with no effect”.
To C279E belongs “with no effect”; to C279K, “with no effect”; to C279A, “with no effect”.
With K305E the entry was “with no effect”; with K305A, “with no effect”; with L312E, “with no effect”.
With L312T, the “effect of a mutation on the interaction” value was “disrupting interaction strength”.
Turning to L312A, the “effect of a mutation on the interaction” value is recorded as “with no effect”.
With L312P the entry was “disrupting interaction strength”; with L312H, “disrupting interaction strength”; with L312K, “with no effect”.
With N309E the entry was “with no effect”; with N309K, “with no effect”.
With N309D the entry was “disrupting interaction strength”; with N309A, “with no effect”; with K285A, “with no effect”.
Regarding K285E, the “effect of a mutation on the interaction” value was “with no effect”.
As to Y308E, the “effect of a mutation on the interaction” value is “with no effect”.
With Y308K the entry was “with no effect”; with Y308A, “with no effect”; with C292A, “with no effect”.
With C292E the entry was “with no effect”; with C292R, “disrupting interaction strength”.
C292K: the “effect of a mutation on the interaction” value is listed as “with no effect”.
As to L315E, the “effect of a mutation on the interaction” value is listed as “with no effect”.
With L315K, the “effect of a mutation on the interaction” value is listed as “with no effect”.
To L315S belongs “disrupting interaction strength”; to L315A, “with no effect”.
To A300K belongs “with no effect”.
As for A300E, the “effect of a mutation on the interaction” value was “with no effect”.
In the case of V287K, the “effect of a mutation on the interaction” value is on record as “with no effect”.
Take V287A: the “effect of a mutation on the interaction” value is “with no effect”.
To V287E belongs “with no effect”.
Turning to F324K, the “effect of a mutation on the interaction” value is recorded as “with no effect”.
To F324P belongs “disrupting interaction strength”; to F324E, “with no effect”; to F324A, “with no effect”.
Consider F280K, for which the “effect of a mutation on the interaction” value is listed as “with no effect”.
With F280A, the “effect of a mutation on the interaction” value is recorded as “with no effect”.
Take F280E: the “effect of a mutation on the interaction” value is given as “with no effect”.
In the case of Q319K, the “effect of a mutation on the interaction” value was “with no effect”.
With Q319A the entry was “with no effect”; with Q319E, “with no effect”.
With T316E the entry was “with no effect”.
For T316A, the “effect of a mutation on the interaction” value is recorded as “with no effect”.
With T316K the entry was “with no effect”; with N274A, “with no effect”; with N274K, “with no effect”.
To N274E belongs “with no effect”; to H314P, “disrupting interaction strength”.
With H314K the entry was “with no effect”; with H314A, “with no effect”; with H314E, “with no effect”.
Regarding F326K, the “effect of a mutation on the interaction” value was “with no effect”.
As to F326L, the “effect of a mutation on the interaction” value is on record as “disrupting interaction strength”.
With F326E the entry was “with no effect”.
To F326A belongs “with no effect”; to W273K, “with no effect”; to F281K, “with no effect”.
For the variant F281A, the “effect of a mutation on the interaction” value is on record as “with no effect”.
To F281E belongs “with no effect”; to F281S, “disrupting interaction strength”.
To K284A belongs “with no effect”; to K284E, “with no effect”.
With G311D the entry was “disrupting interaction strength”; with G311K, “with no effect”; with G311A, “with no effect”.
For G311E, the “effect of a mutation on the interaction” value is “with no effect”.
With Y286A the entry was “with no effect”; with Y286K, “with no effect”.
In the case of Y286E, the “effect of a mutation on the interaction” value was “with no effect”.
With G277K the entry was “with no effect”.
Take G277A: the “effect of a mutation on the interaction” value is recorded as “with no effect”.
With G277E the entry was “with no effect”; with G282A, “with no effect”; with G282K, “with no effect”.
Regarding G282E, the “effect of a mutation on the interaction” value is on record as “with no effect”.
With M278K, the “effect of a mutation on the interaction” value is on record as “with no effect”.
With M278L the entry was “disrupting interaction strength”.
To M278A belongs “with no effect”; to M278E, “with no effect”.
To M278T belongs “disrupting interaction strength”; to R295E, “with no effect”; to R295A, “with no effect”.
Turning to R295K, the “effect of a mutation on the interaction” value is listed as “with no effect”.
With P301E the entry was “with no effect”; with P301A, “with no effect”.
Regarding P301L, the “effect of a mutation on the interaction” value is “disrupting interaction strength”.
Take P301K: the “effect of a mutation on the interaction” value is listed as “with no effect”.
With P301S, the “effect of a mutation on the interaction” value is recorded as “disrupting interaction strength”.
Consider M317K, for which the “effect of a mutation on the interaction” value is listed as “with no effect”.
With M317E the entry was “with no effect”; with M317A, “with no effect”; with L299E, “with no effect”.
On to L299K, for which the “effect of a mutation on the interaction” value is “with no effect”.
To L299A belongs “with no effect”; to A289E, “with no effect”; to A289K, “with no effect”.
For the variant A289V, the “effect of a mutation on the interaction” value is given as “disrupting interaction strength”.
With S322E the entry was “with no effect”.
For S322A, the “effect of a mutation on the interaction” value is “with no effect”.
With S322K the entry was “with no effect”.
With V313K the entry was “with no effect”; with V313A, “with no effect”.
To V313E belongs “with no effect”.
Y320K: the “effect of a mutation on the interaction” value was “with no effect”.
Take Y320E: the “effect of a mutation on the interaction” value is “with no effect”.
To Y320C belongs “disrupting interaction strength”; to Y320A, “with no effect”.
Turning to I306P, the “effect of a mutation on the interaction” value was “disrupting interaction strength”.
On to I306K, for which the “effect of a mutation on the interaction” value is recorded as “with no effect”.
With I306T the entry was “disrupting interaction strength”; with I306A, “with no effect”; with I306E, “with no effect”.
With S291E the entry was “with no effect”; with S291A, “with no effect”; with S291K, “with no effect”.
With A296K the entry was “with no effect”.
In the case of A296E, the “effect of a mutation on the interaction” value is given as “with no effect”.
To A296V belongs “disrupting interaction strength”; to W304E, “with no effect”; to W304A, “with no effect”.
With W304K the entry was “with no effect”.
For W304R, the “effect of a mutation on the interaction” value was “disrupting interaction strength”.
With D303K the entry was “with no effect”; with D303E, “with no effect”.
To D303A belongs “with no effect”; to K294E, “with no effect”; to K294A, “with no effect”.
To Y298E belongs “with no effect”.
Take Y298A: the “effect of a mutation on the interaction” value is reported as “with no effect”.
Consider Y298K, for which the “effect of a mutation on the interaction” value is “with no effect”.
Turning to I276E, the “effect of a mutation on the interaction” value is listed as “with no effect”.
As for I276A, the “effect of a mutation on the interaction” value is recorded as “with no effect”.
To I276K belongs “with no effect”.
For F302E, the “effect of a mutation on the interaction” value was “with no effect”.
Turning to F302A, the “effect of a mutation on the interaction” value is reported as “with no effect”.
With F302K the entry was “with no effect”.
On to N297K, for which the “effect of a mutation on the interaction” value is given as “with no effect”.
To N297A belongs “with no effect”; to N297E, “with no effect”; to L310E, “with no effect”.
To L310A belongs “with no effect”; to L310W, “disrupting interaction strength”; to L310S, “disrupting interaction strength”.
Regarding L310K, the “effect of a mutation on the interaction” value is recorded as “with no effect”.
To L307E belongs “with no effect”; to L307A, “with no effect”; to L307K, “with no effect”.
To L307P belongs “disrupting interaction strength”; to N275A, “with no effect”.
With N275K the entry was “with no effect”; with N275E, “with no effect”; with K283E, “with no effect”.
In the case of K283A, the “effect of a mutation on the interaction” value is recorded as “with no effect”.
For Q318E, the “effect of a mutation on the interaction” value was “with no effect”.
Take Q318A: the “effect of a mutation on the interaction” value is reported as “with no effect”.
As for Q318K, the “effect of a mutation on the interaction” value is reported as “with no effect”.
With A323E the entry was “with no effect”; with A323T, “disrupting interaction strength”.
To A323K belongs “with no effect”; to A323V, “disrupting interaction strength”; to A321K, “with no effect”.
Take A321E: the “effect of a mutation on the interaction” value was “with no effect”.
